The subject of one assay is pSTAT3. Nature of the assay: pSTAT3 levels in SMCs (data not shown). Format: cell-based, human.
A further assay has as its system Cyclin D1. Nature of the assay: Cyclin D1 western blot in hPASMC. Format: cell-based, human. The following applies: SMCs; 48 hours of EMAP II stimulation. The procedure: (§1) RAW 264.7 (ATCC) mouse macrophages and Human Embryonic Kidney (HEK) 293T cells were cultured in DMEM media with 10% fetal bovine serum […] and glutamine HEPES buffer and beta-mercaptoethanol were added to the growth medium used for RAW 264.7 macrophages. […]
After appropriate treatments, protein lysates were prepared by using RIPA buffer supplemented with phosphatase and protease inhibitors (Thermo Fischer Scientific). […] Western blots were performed according to standard methods and quantified using densitometry using Image Studio Lite software from LI-COR Biosciences. […]
After appropriate treatments, protein lysates were prepared by using RIPA buffer supplemented with phosphatase and protease inhibitors (Thermo Fisher Scientific). […] Western blots were performed according to standard methods and quantified using densitometry using Image Studio Lite software from LI-COR Biosciences.

Another assay concerns S1P. Nature of the assay: S1P, sphingosine and ceramides by HPLC/MS/MS in RAW 264.7 macrophages. Format: cell-based, mouse. To be noted: EMAP II 0-24 hours. As for the experimental part: (§2) RAW 264.7 (ATCC) mouse macrophages and Human Embryonic Kidney (HEK) 293T cells were cultured in DMEM media with 10% fetal bovine serum […] and glutamine HEPES buffer and beta-mercaptoethanol were added to the growth medium used for RAW 264.7 macrophages. Primary human pulmonary artery smooth muscle cells (hPASMC) purchased from Lonza (Walkersville, Md.) were cultured in complete growth medium containing smooth muscle growth media-2 (SmGM-2) with 10% FBS and growth factors provided as a kit by the supplier (Lonza, (Walkersville, Md.). THP-1 human monocyte cells were cultured in RPMI 1640 with 10% FBS and glutamine Cells were cultured in a humidified atmosphere with 5% CO2 at 370 C. For all studies passages 5-14 were used for RAW 264.7 and passages 5-10 were used for hPASMCs. For treatment studies, subconfluent cells plated in multi-well plates were serum starved and if required, pretreated for with inhibitors before stimulating with 2 μg/mL recombinant EMAP II.
Collected cells were rinsed with PBS, pelleted and frozen at minus 80° Celsius. […] Sphingolipids are normalized to inorganic phosphate levels determined from the Bligh & Dyer lipid extraction method. […]
Collected cells were rinsed with PBS, pelleted. […] Sphingolipids were normalized to inorganic phosphate levels in PASMC which was determined from the Bligh & Dyer lipid extraction method. […]

For a further assay, the system named is EGR1. Nature of the assay: EGR1 protein western blot and immunofluorescence in hPASMC. Format: cell-based, human. To be noted: SMCs. As for the experimental part: as §2
After appropriate treatments, protein lysates were prepared by using RIPA buffer supplemented with phosphatase and protease inhibitors (Thermo Fischer Scientific). Alpha-tubulin was used as a loading control. For nuclear and cytoplasmic fractionation, NE-PER kit from Thermo Fischer Scientific was used. Western blots were performed according to standard methods and quantified using densitometry using Image Studio Lite software from LI-COR Biosciences.
Primary hPASMCs cells or human THP-1 macrophages were seeded in Nunc Lab-Tek™ II 4-well imaging plates (Thermo Fisher Scientific) chamber well slides and cultured in growth medium. After the serum starvation cells were stimulated with EMAP II. Treated cells were rinsed with PBS and fixed with 4% paraformaldehyde at room temperature for 15 min and permeabilized with 0.1% Triton X-100 at room temperature for 10 min After washing with PBS three times, the cells were incubated with EGR1, 1amin, or pSphK1 antibody at 40C overnight. The cells were then rinsed with PBS three times and subsequently incubated with respective secondary antibody conjugated with Alex Fluor 647 and 488 or Phalloidin 488 at room temperature for 1 h. The cells were rinsed with PBS three times and coverslips were mounted with SlowFade Gold Antifade Mountant with DAPI (Thermo Fischer Scientific) and the cells were examined under Olympus microscope with 40× for EGR1 expression and with 60× for pSphK1 water immersion.
Knockdown of endogenous EGR1 was carried out by transfecting with 25 nM final concentration of ON-TARGETplus siRNAs specific for EGR1 or non-targeting control purchased from GE Dharmacon (Lafayette,CO) using Viromer Blue (Lipocalyx) per manufacturer's instructions. Cells were stimulated with EMAP II 48 h post-transfection.
RAW 264.7 (ATCC) mouse macrophages and HEK-293T (ATCC) cells were cultured in DMEM media with 10% (v/v) fetal bovine serum (FBS) and 2 mM glutamine HEPES buffer and beta-mercaptoethanol were added to the growth medium used for RAW 264.7 macrophages. […]
On the technique in general: In western blotting, separated proteins are transferred to a membrane and probed.

The next assay relates to Tnf. Nature of the assay: Tnf transcripts qRT-PCR in RAW 264.7 macrophages. Format: cell-based, mouse. To be noted: EMAP II time course. The procedure:
as §1
Total RNA was extracted with TriZol using standard RNA extraction protocol and reverse transcribed with SuperScript III Reverse Transcriptase (Thermo Fischer Scientific). SphK1, Tnf, Il6, EGR1, Gapdh, Hprt1 transcripts were quantified using PrimePCR SYBR Green assays from BioRad. […]
Total RNA was extracted with TriZol using standard RNA extraction protocol and reverse transcribed with SuperScript III Reverse Transcriptase (Thermo Fisher Scientific). SPHK1, Tnf, Il6, EGR1, Gapdh, Hprt1 transcripts were quantified using PrimePCR SYBR Green assays from BioRad.
A general note: Quantitative PCR measures a nucleic acid by following its amplification.

We go through one molecule from US20200397816A1, “METHODS TO TREAT INFLAMMATORY AND SMOOTH MUSCLE CELL PROLIFERATION DISORDERS” (THE TRUSTEES OF INDIANA UNIVERSITY, priority 2019, published 2020).

“Also recorded” adds a separate entry of the source.

B1: EMAP II: 6x-His tagged recombinant EMAP II, cleaved C-terminal peptide of AIMP1 (SEQ ID NO: 2), pro-inflammatory cytokine (protein)
chain: IAGSADSKPIDVSRLDLRIGCIITARKHPDADSLYVEEVDVGEIAPRTVVSGLVNHVPLEQMQNRMVILLCNLKPAKMRGVLSQAMVMCASSPEKIEILAPPNGSVPGDRITFDAFPGEPDKELNPKKKIWEQIQPDLHTNDECVATYKGVPFEVKGKGVCRAQTMSNSGIK
Regarding B1, the “pSTAT3 levels / STAT3 activation” value in the assay on pSTAT3 is reported as “does not impact; also recorded: no STAT3 activation”. For the same molecule, the “cyclin D1 expression” value in the assay with Cyclin D1 is listed as “modulates cyclin D1; also recorded: marked increase”. For the same molecule, in the assay with S1P, the “cellular sphingosine and ceramide levels” value is on record as “bi-modal depreciation; also recorded: decreasing levels over time”. Besides, the “cellular S1P levels” value in the assay with S1P (normalized against inorganic phosphates) is “continuous elevation”. For the same molecule, the “EGR1 expression in whole cell lysates” value with EGR1 (1 to 2 hours following EMAP II) is listed as “significant upregulation”. Besides, the “upregulation of nuclear EGR1 expression” value with EGR1 (EMAP II 2 μg/mL, at 1 hour) is reported as 2.5 fold. Further, the “nuclear EGR1 expression by immunofluorescence vs control” value in the assay with EGR1 (EMAP II 1 hour) is “significantly elevated”. Besides, the Tnf transcription level entry in the assay on Tnf was “increased”.
